Target: human linker histone H1.4 (human, UniProt P10412 1-219)
Test: pull-down

human linker histone H1.4, sequence (P10412 whole entry): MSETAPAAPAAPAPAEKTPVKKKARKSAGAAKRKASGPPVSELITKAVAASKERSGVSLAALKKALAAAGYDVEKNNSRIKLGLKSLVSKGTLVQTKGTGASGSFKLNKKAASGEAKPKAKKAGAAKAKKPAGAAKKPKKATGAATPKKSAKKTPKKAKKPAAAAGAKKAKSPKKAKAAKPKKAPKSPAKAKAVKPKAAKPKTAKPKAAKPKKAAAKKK

binding result: binds
B1: His-tagged NAP1(160-312) (domain or fragment, human, UniProt P55209 160-312, looked up)
chain: EKEDPKGIPEFWLTVFKNVDLLSDMVQEHDEPILKHLKDIKVKFSDAGQPMSFVLEFHFEPNEYFTNEVLTKTYRMRSEPDDSDPFSFDGPEIMGCTGCQIDWKKGKNVTLKTIKKKQKHKGRGTVRTVTKTVSNDSFFNFFAPPEVPESGDL

— article PMC6598686 (Molecular cell, 2019)
